Laboratory results from patent US20060223116A1 (published 2006).

Target: T1, murine ITK (endogenous, mouse thymocytes and CD4 T cells) (mouse, UniProt Q03526 1-625)
T1 construct: Endogenous protein of BALB/c mouse cells; also called endogenous ITK
T1 sequence: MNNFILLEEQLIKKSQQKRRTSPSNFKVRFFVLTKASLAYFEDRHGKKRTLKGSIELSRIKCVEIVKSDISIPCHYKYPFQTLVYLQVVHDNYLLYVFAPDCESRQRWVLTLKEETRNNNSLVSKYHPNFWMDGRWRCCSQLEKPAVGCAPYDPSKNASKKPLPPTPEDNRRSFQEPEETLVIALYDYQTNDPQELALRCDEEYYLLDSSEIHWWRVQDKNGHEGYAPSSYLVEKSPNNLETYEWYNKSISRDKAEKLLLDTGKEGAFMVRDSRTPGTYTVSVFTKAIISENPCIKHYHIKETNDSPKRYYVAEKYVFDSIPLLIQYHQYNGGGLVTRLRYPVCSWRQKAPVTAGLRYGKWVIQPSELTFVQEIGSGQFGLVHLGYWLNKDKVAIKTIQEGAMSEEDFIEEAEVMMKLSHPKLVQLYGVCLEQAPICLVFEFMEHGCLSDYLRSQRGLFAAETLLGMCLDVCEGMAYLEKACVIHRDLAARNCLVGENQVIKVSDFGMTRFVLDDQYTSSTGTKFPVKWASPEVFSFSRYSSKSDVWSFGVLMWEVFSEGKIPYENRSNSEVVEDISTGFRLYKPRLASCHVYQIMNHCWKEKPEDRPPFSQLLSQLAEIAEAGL
Experiment: IP of T-bet (4B10) from mouse thymocyte nuclear extracts, anti-ITK (2F12) blot
Method: Most important, it was determined whether ITK interacted with T-bet under physiological conditions, by determining endogenous association in primary thymocytes. Single cell suspensions were obtained from thymi of BALB/c wt, T-bet^{-/-} and ITK−/− mice and nuclear extracts were prepared with NE-PER (Pierce, Rockford) according to the manufacturer's instructions. Two mg of nuclear extracts were incubated with anti-T-bet mAb, 4B10, in 150 mM NaCl. Immune complexes were resolved and probed with anti-ITK mAb (2F12), and sequentially with 4B10 after stripping. ITK expression was assayed in 30 μg of nuclear extracts. Initial attempts to perform coimmunoprecipitation experiments in naïve Thp cells 24 and 48 hours after TCR stimulation failed, likely secondary to both the low levels of endogenous T-bet expressed at this early time point and the competing processes of phosphorylation and dephosphorylation occurring in activated cells.

- binding result: binds
B1: murine T-bet (endogenous, mouse thymocytes and Thp cells) (other, UniProt Q9JKD8 1-530, looked up)
chain: MGIVEPGCGDMLTGTEPMPSDEGRGPGADQQHRFFYPEPGAQDPTDRRAGSSLGTPYSGGALVPAAPGRFLGSFAYPPRAQVAGFPGPGEFFPPPAGAEGYPPVDGYPAPDPRAGLYPGPREDYALPAGLEVSGKLRVALSNHLLWSKFNQHQTEMIITKQGRRMFPFLSFTVAGLEPTSHYRMFVDVVLVDQHHWRYQSGKWVQCGKAEGSMPGNRLYVHPDSPNTGAHWMRQEVSFGKLKLTNNKGASNNVTQMIVLQSLHKYQPRLHIVEVNDGEPEAACSASNTHVFTFQETQFIAVTAYQNAEITQLKIDNNPFAKGFRENFESMYASVDTSVPSPPGPNCQLLGGDPFSPLLSNQYPVPSRFYPDLPGQPKDMISQPYWLGTPREHSYEAEFRAVSMKPTLLPSAPGPTVPYYRGQDVLAPGAGWPVAPQYPPKMSPAGWFRPMRTLPMDPGLGSSEEQGSSPSLWPEVTSLQPEPSDSGLGEGDTKRRRISPYPSSGDSSSPAGAPSPFDKETEGQFYNYFPN
notes: mature; Endogenous protein in nuclear extracts; also called endogenous T-bet
